Two molecules from article PMC5515580 can be followed below.

Changes are numbered by the printed parent chain. Names and notes keep the numbering of the source.

The test deals with MAST3-HA (human) (UniProt O60307).
Chain of MAST3-HA (human) (O60307 313-1021): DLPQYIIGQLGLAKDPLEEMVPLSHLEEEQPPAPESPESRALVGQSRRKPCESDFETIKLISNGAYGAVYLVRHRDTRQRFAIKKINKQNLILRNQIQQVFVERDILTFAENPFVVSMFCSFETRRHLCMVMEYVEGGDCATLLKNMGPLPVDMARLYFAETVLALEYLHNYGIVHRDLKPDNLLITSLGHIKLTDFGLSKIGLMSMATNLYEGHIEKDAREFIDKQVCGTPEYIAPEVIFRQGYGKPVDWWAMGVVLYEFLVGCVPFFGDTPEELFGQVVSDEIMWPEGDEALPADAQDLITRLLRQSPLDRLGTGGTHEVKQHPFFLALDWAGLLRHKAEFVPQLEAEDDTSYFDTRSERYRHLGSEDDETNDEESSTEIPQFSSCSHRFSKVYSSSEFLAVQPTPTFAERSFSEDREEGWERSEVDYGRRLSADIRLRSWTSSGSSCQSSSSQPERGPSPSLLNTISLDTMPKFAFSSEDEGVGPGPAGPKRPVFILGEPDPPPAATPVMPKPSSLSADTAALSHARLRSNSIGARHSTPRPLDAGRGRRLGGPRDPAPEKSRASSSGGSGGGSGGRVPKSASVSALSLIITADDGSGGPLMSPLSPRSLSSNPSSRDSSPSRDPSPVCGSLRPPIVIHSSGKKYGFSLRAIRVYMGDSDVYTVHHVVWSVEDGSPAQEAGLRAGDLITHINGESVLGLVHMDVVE

B1: P-S88-ARPP-16 (natural protein)
chain: MEDKVTSPEKAEEAKLKARYPHLGQKPGGSDFLRKRLQKGQKYFDSGDYNMAKAKMKNKQLPTAAPDKTEVTGDHIPTPQDLPQRKPSLVASKLAG
modifications: phosphoserine at 88 (by PKA, to a maximal stoichiometry)
Consider B1, for which the Km of phosphorylation of Ser46 by immunoprecipitated MAST3 (32P incorporation, 10-500 nM substrate, 2 min; Figure 1b) was 0.158 µM.

B2: 6xHis-S88D-ARPP-16 (natural protein)
chain: B1 chain with S88D
Regarding B2, the Km of phosphorylation of Ser46 by immunoprecipitated MAST3 (32P incorporation, 10-500 nM substrate, 2 min; Figure 1—figure supplement 1) was determined as 0.138 µM.
